According to PMC4136481:

Molecular target: T1, basic region-leucine zipper (B Zip) domain of the transcription factor CCAAT/enhancer binding protein α (C/EBPα) (rat), P05554
T1 chain: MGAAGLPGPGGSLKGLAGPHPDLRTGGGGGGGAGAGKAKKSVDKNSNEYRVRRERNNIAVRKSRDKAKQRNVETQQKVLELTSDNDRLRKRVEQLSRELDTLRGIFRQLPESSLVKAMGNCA
Assay: FRET or BRET
Conditions: remark: other sources report otherwise

B1: basic region-leucine zipper (B Zip) domain of the transcription factor CCAAT/enhancer binding protein α (C/EBPα), P05554 237-358 (domain or fragment)
chain: T1 chain
  donor fluorescence lifetime τm in the presence of the acceptor, mean: 2.78 ns
